For assay [1], the target named is T1, 4H3858-bH.
T1 chain: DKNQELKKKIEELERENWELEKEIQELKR
Nature of the assay: two-hybrid library CCNG1.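 Note: natural log of median RNA to DNA barcode read ratio; higher means stronger binding.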

The target of assay [2] is T2, 4H619-bH.
T2 chain: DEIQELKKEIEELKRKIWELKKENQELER
Nature of the assay: two-hybrid library CCNG1.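 Note: natural log of median RNA to DNA barcode read ratio; higher means stronger binding.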

Assay [3] deals with T3, 4H3974-bH.
T3 chain: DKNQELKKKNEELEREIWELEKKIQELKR
Nature of the assay: two-hybrid library CCNG1.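 Note: natural log of median RNA to DNA barcode read ratio; higher means stronger binding.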

Assay [4] addresses T4, 4H4073-bH.
T4 chain: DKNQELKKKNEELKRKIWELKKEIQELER
Nature of the assay: two-hybrid library CCNG1.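 Note: natural log of median RNA to DNA barcode read ratio; higher means stronger binding.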

Assay [5] concerns the target T5, 4H570-bH.
T5 chain: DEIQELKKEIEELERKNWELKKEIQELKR
Nature of the assay: two-hybrid library CCNG1.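 Note: natural log of median RNA to DNA barcode read ratio; higher means stronger binding.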

Assay [6] deals with T6, 4H584-bH.
T6 chain: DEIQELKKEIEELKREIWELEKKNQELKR
Nature of the assay: two-hybrid library CCNG1.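 Note: natural log of median RNA to DNA barcode read ratio; higher means stronger binding.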

Assay [7] addresses T7, 4H3817-bH.
T7 chain: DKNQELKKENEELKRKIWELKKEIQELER
Nature of the assay: two-hybrid library CCNG1.

For assay [8], the target named is T8, 4H906-bH.
T8 chain: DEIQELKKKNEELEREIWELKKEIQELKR
As to the kind of experiment: two-hybrid library CCNG1.

The target in assay [9] is T9, 4H850-bH.
T9 chain: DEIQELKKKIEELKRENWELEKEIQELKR
As to the kind of experiment: two-hybrid library CCNG1.

Assay [10] has as its target T10, 4H2253-AA.
T10 chain: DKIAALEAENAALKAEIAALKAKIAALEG
Nature of the assay: two-hybrid library CCmax. Conditions: mean of both orientations.

Assay [11] concerns the target T11, 4H3395-AA.
T11 chain: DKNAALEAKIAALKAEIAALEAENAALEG
As to the kind of experiment: two-hybrid library CCmax. Conditions: mean of both orientations.

Assay [12] deals with T12, 4H850-AA.
T12 chain: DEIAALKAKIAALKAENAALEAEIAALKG
As to the kind of experiment: two-hybrid library CCmax. Conditions: mean of both orientations.

Assay [13] addresses T13, 4H710-AA.
T13 chain: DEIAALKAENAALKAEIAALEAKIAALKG
As to the kind of experiment: two-hybrid library CCmax. The following applies: mean of both orientations.

Assay [14] addresses T14, 4H3590-AA.
T14 chain: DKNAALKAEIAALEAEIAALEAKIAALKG
As to the kind of experiment: two-hybrid library CCmax. Conditions: mean of both orientations.

In assay [15] the target is T15, 4H2725-AA.
T15 chain: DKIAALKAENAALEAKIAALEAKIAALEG
Nature of the assay: two-hybrid library CCmax. The following applies: mean of both orientations.

Assay [16] addresses T16, 4H797-AA.
T16 chain: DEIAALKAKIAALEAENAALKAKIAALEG
As to the kind of experiment: two-hybrid library CCmax. The following applies: mean of both orientations.

Assay [17] concerns the target T17, 4H3410-AA.
T17 chain: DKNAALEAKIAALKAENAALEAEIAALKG
As to the kind of experiment: two-hybrid library CCmax. The following applies: mean of both orientations.

The target in assay [18] is T18, 4H3165-AA.
T18 chain: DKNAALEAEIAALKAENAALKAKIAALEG
As to the kind of experiment: two-hybrid library CCmax. Conditions: mean of both orientations.

Assay [19] has as its target T19, 4H3865-AA.
T19 chain: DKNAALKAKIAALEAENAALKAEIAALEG
Nature of the assay: two-hybrid library CCmax.

The target in assay [20] is T20, 4H930-AA.
T20 chain: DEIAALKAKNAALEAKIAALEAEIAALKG
As to the kind of experiment: two-hybrid library CCmax. The following applies: mean of both orientations.

In assay [21] the target is T21, 4H2330-AA.
T21 chain: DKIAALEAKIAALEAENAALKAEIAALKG
As to the kind of experiment: two-hybrid library CCmax. The following applies: mean of both orientations.

The target in assay [22] is T22, 4H3130-AA.
T22 chain: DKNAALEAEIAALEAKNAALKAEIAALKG
As to the kind of experiment: two-hybrid library CCmax. Conditions: mean of both orientations.

Assay [23] concerns the target T23, 4H891-AA.
T23 chain: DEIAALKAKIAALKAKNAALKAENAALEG
As to the kind of experiment: two-hybrid library CCmax. Conditions: mean of both orientations.

Assay [24] has as its target T24, 4H629-AA.
T24 chain: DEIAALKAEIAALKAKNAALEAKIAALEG
As to the kind of experiment: two-hybrid library CCmax. Conditions: mean of both orientations.

The target of assay [25] is T25, 4H485-AA.
T25 chain: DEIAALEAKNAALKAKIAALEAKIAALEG
Nature of the assay: two-hybrid library CCmax. Conditions: mean of both orientations.

Assay [26] addresses T26, 4H2389-AA.
T26 chain: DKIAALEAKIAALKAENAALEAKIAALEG
As to the kind of experiment: two-hybrid library CCmax. The following applies: mean of both orientations.

The target of assay [27] is T27, 4H3009-AA.
T27 chain: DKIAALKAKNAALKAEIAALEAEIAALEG
As to the kind of experiment: two-hybrid library CCmax. The following applies: mean of both orientations.

Assay [28] deals with T28, 4H536-AA.
T28 chain: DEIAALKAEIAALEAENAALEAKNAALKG
Nature of the assay: two-hybrid library CCmax. The following applies: mean of both orientations.

The target of assay [29] is T29, 4H909-AA.
T29 chain: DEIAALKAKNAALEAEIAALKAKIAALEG
As to the kind of experiment: two-hybrid library CCmax. Conditions: mean of both orientations.

Assay [30] has as its target T30, 4H2162-AA.
T30 chain: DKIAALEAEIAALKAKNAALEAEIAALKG
As to the kind of experiment: two-hybrid library CCmax. The following applies: mean of both orientations.

In assay [31] the target is T31, 4H2274-AA.
T31 chain: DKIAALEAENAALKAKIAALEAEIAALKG
Nature of the assay: two-hybrid library CCmax. The following applies: mean of both orientations.

In assay [32] the target is T32, 4H2109-AA.
T32 chain: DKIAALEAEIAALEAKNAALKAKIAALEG
Nature of the assay: two-hybrid library CCmax.

The target in assay [33] is T33, 4H3120-AA.
T33 chain: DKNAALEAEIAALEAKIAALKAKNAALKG
Nature of the assay: two-hybrid library CCmax. The following applies: mean of both orientations.

Assay [34] concerns the target T34, 4H2865-AA.
T34 chain: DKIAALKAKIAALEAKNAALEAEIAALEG
As to the kind of experiment: two-hybrid library CCmax. The following applies: mean of both orientations.

For assay [35], the target named is T35, 4H3753-AA.
T35 chain: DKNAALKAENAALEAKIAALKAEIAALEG
Nature of the assay: two-hybrid library CCmax. Conditions: mean of both orientations.

Assay [36] addresses T36, 4H2698-AA.
T36 chain: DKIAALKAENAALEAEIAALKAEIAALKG
Nature of the assay: two-hybrid library CCmax. The following applies: mean of both orientations.

The target in assay [37] is T37, 4H570-AA.
T37 chain: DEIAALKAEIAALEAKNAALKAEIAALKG
Nature of the assay: two-hybrid library CCmax. Conditions: mean of both orientations.

In assay [38] the target is T38, 4H94-AA.
T38 chain: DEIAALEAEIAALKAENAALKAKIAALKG
As to the kind of experiment: two-hybrid library CCmax. The following applies: mean of both orientations.

Assay [39] has as its target T39, 4H3016-AA.
T39 chain: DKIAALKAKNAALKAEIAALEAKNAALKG
Nature of the assay: two-hybrid library CCmax. Conditions: mean of both orientations.

Assay [40] concerns the target T40, 4H458-AA.
T40 chain: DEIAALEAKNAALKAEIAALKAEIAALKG
Nature of the assay: two-hybrid library CCmax. The following applies: mean of both orientations.

Assay [41] addresses T41, 4H745-AA.
T41 chain: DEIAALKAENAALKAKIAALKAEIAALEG
Nature of the assay: two-hybrid library CCmax. The following applies: mean of both orientations.

The target of assay [42] is T42, 4H2649-AA.
T42 chain: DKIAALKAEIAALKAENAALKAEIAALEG
Nature of the assay: two-hybrid library CCmax. Conditions: mean of both orientations.

For assay [43], the target named is T43, 4H3697-AA.
T43 chain: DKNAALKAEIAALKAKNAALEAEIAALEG
Nature of the assay: two-hybrid library CCmax. The following applies: mean of both orientations.

Assay [44] concerns the target T44, 4H310-AA.
T44 chain: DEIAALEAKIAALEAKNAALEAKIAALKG
Nature of the assay: two-hybrid library CCmax. Conditions: mean of both orientations.

The target of assay [45] is T45, 4H2438-AA.
T45 chain: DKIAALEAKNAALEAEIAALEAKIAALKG
Nature of the assay: two-hybrid library CCmax. Conditions: mean of both orientations.

For assay [46], the target named is T46, 4H3381-AA.
T46 chain: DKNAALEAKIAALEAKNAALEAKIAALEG
As to the kind of experiment: two-hybrid library CCmax. The following applies: mean of both orientations.

The target of assay [47] is T47, 4H2473-AA.
T47 chain: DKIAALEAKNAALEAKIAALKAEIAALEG
Nature of the assay: two-hybrid library CCmax. Conditions: mean of both orientations.

As for DKNQELKKENEELKRKIWELKKEIQELER [4H3817-bH], the interaction score is -0.973 in assay [1]; 0.591 in assay [2]; 0.787 in assay [3]; -1.13 in assay [4]; -0.71 in [5]; -0.723 in assay [6]. Further, the interaction score in assay [7] is 0.775; in assay [8], -0.699; in assay [9], -0.885.
As to DKIAALEAEIAALEAKNAALKAKIAALEG [4H2109-AA], the interaction score was -1.76 in [10]; -0.63 in [11]; 2.07 in assay [12]; -1.26 in assay [13]; 1.21 in [14]; 0.465 in [15]. Besides, the interaction score in [16] is 1.44; in assay [17], 1.87; in [18] it was -0.391; in assay [19], -0.488; in assay [20] it was -0.719; in assay [21] it was 0.0427. Besides, the interaction score in assay [22] was -1.05; in assay [23] it was -1.3; in assay [24], 1.09; in assay [25], -0.723; in assay [26], 2.49; in [27], -0.233. The interaction score in assay [28] was 0.839; in assay [29], -0.525; in assay [30], 0.55; in [31], -1.47; in [32] it was 1.67; in assay [33], -0.474. For the same molecule, the interaction score in [34] is 2.17; in assay [35], 0.644; in assay [36] it was 1.53; in assay [37], -0.239; in [38] it was 1.43; in assay [39], -1.16. Also, the interaction score in assay [40] was -1.45; in assay [41] it was -0.947; in assay [42], 1.26; in [43] it was -0.415; in [44], 1.94; in assay [45] it was -0.365. Moreover, the interaction score in assay [46] was -0.283; in [47], -0.356.
